What was measured:
[1] = molecular target: AausFP1 (His-tag cleaved, crystallised) (Aequorea cf. australis); assay: crystal structure; AausFP1 at 40 mg/ml, hanging drop, 0.7-1.3 M trisodium citrate, 0.2 M sodium chloride, 0.1 M Tris pH 6.5-8.0; 4 molecules in the asymmetric unit; interfaces analysed with PISA
[2] = molecular target: AausFP2 (His-tag removed with proteinase K, crystallised) (Aequorea cf. australis); assay: crystal structure; AausFP2 at 51 mg/ml, hanging drop, 14%-24% PEG 3350 trisodium citrate, 0.2 M sodium chloride, 0.1 M HEPES pH 7.3-8.2; 1 molecule in the asymmetric unit; interfaces analysed with PISA

stoichiometry N [1]	stoichiometry N [2]	Substance
2	–	AausFP1 (His-tag cleaved, crystallised) (natural protein)
–	2	AausFP2 (His-tag removed with proteinase K, crystallised) (natural protein)

— article PMC7660908
